From patent publication US20020164759A1 (UNIVERSITY OF GEORGIA RESEARCH FOUNDATION, published 2002) come the findings set out here.

The target of series [1] is Porphyromonas gingivalis dipeptidylpeptidase-7 (DPP-7), purified from strain HG66 (Porphyromonas gingivalis) (UniProt B2RKV3). The series is described as follows: cell-based or functional assay.
The target of series [2] is T1, Phe-Leu-Arg-Glu-Pro-Val-Ile-Phe-Leu (SEQ ID NO:13).
T1 chain: FLREPVIFL

The target in series [3] is T2, Trp-Ala-Gly-Gly-Asp-Ala-Ser-Gly-Glu (SEQ ID NO:10).
T2 chain: WAGGDASGE

Series [4] concerns the target T3, Gln-Lys-Gln-Met-Ser-Asp-Arg-Arg-Glu (SEQ ID NO:17).
T3 chain: QKQMSDRRE

The target in series [5] is T4, Lys-Ile-Ala-Gly-Tyr-His-Leu-Glu-Leu (SEQ ID NO:12).
T4 chain: KIAGYHLEL

Series [6] concerns the target carboxymethylated lysosyme.
Series [7] deals with T5, Ala-Pro-Val-Arg-Ser-Leu (SEQ ID NO:16).
T5 chain: APVRSL

The target of series [8] is T6, Ser-Pro-Tyr-Ser-Ser-Glu-Thr-Thr (SEQ ID NO:15).
T6 chain: SPYSSETT

Series [9] deals with T7, Trp-His-Trp-Leu-Glu-Leu-Lys-Pro-Gly-Glu-Pro-Met-Tyr (SEQ ID NO:14).
T7 chain: WHWLELKPGEPMY

For series [10], the target named is T8, Ile-Ala-Arg-Arg-His-Pro-Tyr-Phe-Leu (SEQ ID NO:11).
T8 chain: IARRHPYFL

For series [11], the target named is T9, Porphyromonas gingivalis dipeptidylpeptidase-7 (DPP-7), purified from strain HG66 (Porphyromonas gingivalis, UniProt B2RKV3 24-712).
T9 sequence: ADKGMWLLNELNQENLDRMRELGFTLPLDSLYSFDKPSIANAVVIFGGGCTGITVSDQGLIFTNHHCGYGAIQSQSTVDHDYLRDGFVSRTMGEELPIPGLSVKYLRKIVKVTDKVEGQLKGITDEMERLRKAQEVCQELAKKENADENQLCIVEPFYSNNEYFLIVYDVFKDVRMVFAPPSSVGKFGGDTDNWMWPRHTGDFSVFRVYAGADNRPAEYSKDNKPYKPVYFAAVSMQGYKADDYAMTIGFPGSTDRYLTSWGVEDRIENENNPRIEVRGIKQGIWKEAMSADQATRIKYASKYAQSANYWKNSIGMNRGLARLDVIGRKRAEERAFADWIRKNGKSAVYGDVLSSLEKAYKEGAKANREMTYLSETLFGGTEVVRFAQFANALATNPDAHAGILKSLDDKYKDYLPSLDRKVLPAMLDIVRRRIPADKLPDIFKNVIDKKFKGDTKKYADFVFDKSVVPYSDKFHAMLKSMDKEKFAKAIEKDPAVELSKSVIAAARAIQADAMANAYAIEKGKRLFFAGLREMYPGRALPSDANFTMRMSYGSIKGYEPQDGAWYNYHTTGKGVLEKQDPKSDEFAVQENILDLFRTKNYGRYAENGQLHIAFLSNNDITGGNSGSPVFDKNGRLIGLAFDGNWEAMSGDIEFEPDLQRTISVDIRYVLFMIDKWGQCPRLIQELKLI
The series is described as follows: cell-based or functional assay.

Regarding Aprotinin (from UniProt P00974 36-93), in series [1], the % of residual activity of DPP-7 against H-Ala-Phe-pNA after preincubation with 0.5 mg/ml inhibitor is 128%.

B1: Porphyromonas gingivalis dipeptidylpeptidase-7 (DPP-7), purified from strain HG66 (protein)
chain: T9 sequence
B1: the “Peptides cleaved (hydrolysis products separated by reverse-phase HPLC, mass spectrometry)” value in [2] is reported as “Phe-Leu-↓-Arg-Glu-Pro-Val-Ile-Phe-Leu”; in series [3] it was “Trp-Ala-↓-Gly-Gly-Asp-Ala-Ser-Gly-Glu”; in series [5], “Lys-Ile-↓-Ala-Gly-Tyr-His-Leu-Glu-Leu”; in [10], “Ile-Ala-↓-Arg-Arg-His-Pro-Tyr-Phe-Leu”. The endopeptidase activity result (with type I collagen; with insulin β chain; with azocazein; with gelatin; in [6]) was “did not show any endopeptidase activity” each time. The “Peptides not cleaved (reverse-phase HPLC, mass spectrometry)” value in [4], in series [7], in series [8] and in [9] was “Peptides not cleaved” in each case.

In the case of AG [Ala-Gly], the “% of residual activity of DPP-7 against H-Ala-Phe-pNA after preincubation with 100 mM compound” value (“% of residual activity … with 100 mM compound” below) in series [11] was found to be 96%.

On to RF [Arg-Phe], for which, in [11], the “% of residual activity … with 100 mM compound” value came out at 69%.

For GA [Gly-Ala], the “% of residual activity … with 100 mM compound” value in series [11] was 102%.
